Residue numbers refer to the chain shown, from its start.
B1: recombinant human RYK protein used in KinExA (receptor, UniProt P34925 46-227, looked up)
chain: AAPAPRPPELQSASAGPSVSLYLSEDEVRRLIGLDAELYYVRNDLISHYALSFSLLVPSETNFLHFTWHAKSKVEYKLGFQVDNVLAMDMPQVNISVQGEVPRTLSVFRVELSCTGKVDSEVMILMQLNLTVNSSKNFTVLNFKRRKMCYKKLEEVKTSALDKNTSRTIYDPVHAAPTTSTR
notes: Legend prints 'RYK2'; also called recombinant human RYK2 protein
B2: 3C12 (antibody, V domains shown)
VH: QVQLKESGPGLVAPSQSLSITCTVSGFSLNGYGVNWVRQPPGKDLEWLGMIWGDGITEFNSALKSRLSISKDNSKSQVFLKMNSLQTEDTARYYCVRQGSGVWFAYWGQGTLVS
VL: DVLVTQTPLSLPVSLGDQASISCRSSQTIVHSNGNTYLEWYLQKPGQSPKLLIYKVSNRFSGVPDRFSGSGSGTDFTLKISRVEAEDLGVYYCFQGSHVPYTFGGGTKLEIK
notes: anti-human RYK mAb; also called 3C12 mAb
B3: 11E9 (antibody, V domains shown)
VH: QVQLKESGPGLVAPSQSLSITCTVSGFSLNGYGVNWVRQPPGKDLEWLGMIWGDGITEFNSALKSRLSISKDNSKSQVFLKMNSLQTEDTARYYCVRQGSGVWFAYWGQGTLS
VL: B2 VL with S61C
notes: anti-human RYK mAb; also called 11E9 mAb
B4: 7-H10 anti-human RYK mAb (antibody, V domains shown)
VH: QVQLQQSGAELAKPGTSVKLSCKASGYIFTNYDINWVRQRPEQGLEWIGWIFPGDDSTKYNEKFEGKAALTTDKSSNTAYIQLSRLTSGDSAVYFCTRYHYYGSSLGWSFDVWGAGTSVTVSS
VL: EIVLTQSPALMAASPGEKVTITCSVSSRISSINLHWYQQKSETSPKTWIYGTSNLASGVPSRFSGSGSGTSYSLTISNMEAEDAATYYCQQWSSYPYTFGGGTKVEIK
notes: Mouse hybridoma mAb, kappa light chain, detected with anti-mouse IgG; also called mAb 7-H10

Key:
7-H10 anti-human RYK mAb = molecular target: B4; assay: KinExA 3200: free mAb captured on RYK-coated particles in the presence of rising molar concentration of soluble RYK
Procedure: (§1) Analysis was performed using a KinExA 3200 instrument. FIG. 7A: The proportion of anti-human RYK mAb bound to particles coated with RYK protein (y-axis) in the presence of increasing molar (M) concentration of soluble RYK competitor (x-axis) is shown for 2-D11 mAb (upper left panel) and 7-H10 mAb (lower left panel).

[1] = molecular target: T1, recombinant extracellular protein of mouse RYK (mouse, UniProt Q01887 35-211); assay: dot blot of recombinant RYK proteins (rabbit IgG tag) on nylon membrane, probed with the mAb, anti-mouse IgG-HRP
T1 construct: also called mRYK; not shown: rabbit IgG tag for purification
Procedure: FIGS. 4A-4B illustrate the […] of amino acids required for binding of anti-human RYK mAb to the extracellular domain of human RYK (SEQ ID NO:129). FIG. 4A illustrates experiments in which binding of 2-D11, 7-H10, 3-C12, 11-E9, 6-B5, 6-D10 and sheep anti-RYK mAb was assessed using recombinant human RYK proteins (SEQ ID NO:129) in which one amino acid that differs between human and mouse RYK within the extracellular domain was replaced with the corresponding amino acid of mouse RYK. Each recombinant protein was transferred onto nylon membrane, probed with the indicated anti-RYK mAb or Sheep anti-RYK Ab, and detected with an anti-mouse IgG or donkey-anti-sheep antibody conjugated with horse radish peroxidase. Rabbit anti-IgG blotting is a positive for protein blotting and detection as recombinant proteins have a rabbit IgG tag for purification. Alignment of the protein sequences of the extracellular domain of human and mouse RYK are shown in the lower panel and the boxed amino acids indicate the amino acids changes made for each recombinant protein. […]

[2] = molecular target: B1; assay: KinExA 3200, soluble RYK competitor against RYK-coated particles
Procedure: as §1

[3] = molecular target: T1, recombinant extracellular protein of …; assay: immunoblot of recombinant extracellular protein on nylon membrane
Procedure: FIG. 4A illustrates experiments in which binding of 2-D11, 7-H10, 3-C12, 11-E9, 6-B5, 6-D10 and sheep anti-RYK mAb was assessed using recombinant human RYK proteins (SEQ ID NO:129) in which one amino acid that differs between human and mouse RYK within the extracellular domain was replaced with the corresponding amino acid of mouse RYK. Each recombinant protein was transferred onto nylon membrane, probed with the indicated anti-RYK mAb or Sheep anti-RYK Ab, and detected with an anti-mouse IgG or donkey-anti-sheep antibody conjugated with horse radish peroxidase. […]
The anti-human RYK mAbs, 2-D11 and 7-H10, appear specific for an amino terminal epitope of human Ryk (residues 46-57) that are distinct from those in mouse Ryk (FIG. 3); these mAbs also bind mutant forms of Ryk containing amino acid substitutions in human Ryk at positions that differ from that of the highly homologous mouse Ryk to assimilate mouse Ryk at the site of substitution, with amino acid sequence shown in FIG. 3, as shown by immunoblot analyses of recombinant extracellular proteins of human or mouse or each of the various mutant forms of human Ryk (FIG. 4) For this, the binding of 2-D11, 7-H10, or Sheep anti-RYK mAb was assessed using recombinant extracellular RYK proteins as specified in the Key. […]

B1
IC50 (read off the curve) (7-H10 anti-human RYK mAb): ~20 nM

B2
binding result [1]: no binding

B3
binding result [1]: no binding

B4
Kd [2]: 10.6 nM
binding result [3]: no binding

From patent US20250027945A1 (University of California, published 2025)
